From publication PMC5371819, “Structural intermediates and directionality of the swiveling motion of Pyruvate Phosphate Dikinase” (Scientific Reports, 2017) come the findings set out here.

The data set deals with the molecule itself. Briefly: crystal structure; FtPPDK 10 mg/mL co-crystallized with 20 mM PEP and 10 mM NADH, microbatch, 17% PEG 3350, 100 mM MOPS pH 7, 100 mM magnesium formate, 21 °C; PDB 5JVJ, two monomers in the ASU.

B1: Pyruvate phosphate dikinase from Flaveria trinervia (C4-isoform) (enzyme, UniProt P22221 78-953, looked up)
chain: TAKKRVFTFGKGRSEGNRDMKSLLGGKGANLAEMSSIGLSVPPGLTISTEACEEYQQNGKSLPPGLWDEISEGLDYVQKEMSASLGDPSKPLLLSVRSGAAISMPGMMDTVLNLGLNDEVVAGLAGKSGARFAYDSYRRFLDMFGNVVMGIPHSLFDEKLEQMKAEKGIHLDTDLTAADLKDLVEKYKNVYVEAKGEKFPTDPKKQLELAVNAVFDSWDSPRANKYRSINQITGLKGTAVNIQSMVFGNMGNTSGTGVLFTRNPSTGEKKLYGEFLINAQGEDVVAGIRTPEDLGTMETCMPEAYKELVENCEILERHYKDMMDIEFTVQENRLWMLQCRTGKRTGKGAVRIAVDMVNEGLIDTRTAIKRVETQHLDQLLHPQFEDPSAYKSHVVATGLPASPGAAVGQVCFSAEDAETWHAQGKSAILVRTETSPEDVGGMHAAAGILTARGGMTSHAAVVARGWGKCCVSGCADIRVNDDMKIFTIGDRVIKEGDWLSLNGTTGEVILGKQLLAPPAMSNDLEIFMSWADQARRLKVMANADTPNDALTARNNGAQGIGLCRTEHMFFASDERIKAVRKMIMAVTPEQRKVALDLLLPYQRSDFEGIFRAMDGLPVTIRLLDPPLHEFLPEGDLEHIVNELAVDTGMSADEIYSKIENLSEVNPMLGFRGCRLGISYPELTEMQVRAIFQAAVSMTNQGVTVIPEIMVPLVGTPQELRHQISVIRGVAANVFAEMGVTLEYKVGTMIEIPRAALIAEEIGKEADFFSFGTNDLTQMTFGYSRDDVGKFLQIYLAQGILQHDPFEVIDQKGVGQLIKMATEKGRAANPSLKVGICGEHGGEPSSVAFFDGVGLDYVSCSPFRVPIARLAAAQVIV
notes: domains NBD aa 1-340, CD aa 380-515, PBD aa 535-874; Cloned into pET-16b with a histidine10 tag and a TEV site; Co-crystallized with PEP and NADH (5JVJ) or PEP and 2'-Br-dAppNHp (5JVL); also called FtPPDK; C4-PPDK
On to B1, for which the binding result is listed as “binds”.
